Patent US11813311B2, “Treatment and prevention of metabolic diseases” (Singapore Health Services PTE LTD., priority 2019, dated 2023)

What was measured:
WDF-fed mice [1] = test: WDF diet-induced obesity/T2D model (Example 2); format: in vivo, mouse
Experimental: Mice were injected intraperitoneally with 10 mg/kg of an antagonist anti-IL-11 antibody, an antagonist anti-IL-11Rα antibody, or an identical amount of isotype-matched IgG control antibody. The anti-IL-11 and anti-IL-11Rα antibodies bind to mouse IL-11 and mouse IL-11Rα respectively, and inhibit IL-11 mediated signalling.
In order to establish metabolic diseases such as obesity and T2D, mice were fed Western diet (D12079B, Research Diets), supplemented with 15% weight/volume fructose in drinking water (WDF) for 16 weeks, from 12 weeks of age.
Total body fat and lean mass measurements were performed every two weeks by EchoMRI analysis using 4in1 Body Composition Analyzer for Live Small Animals.
For fasting blood glucose measurements, mice were fasted for 6 hours prior to blood collection (via tail snip), and Accu-Chek blood glucose meter was used to obtain fasting glucose measurements.
For intraperitoneal glucose tolerance tests, mice were fasted for 6 h prior to being subjected to ipGTT. Basal fasting glucose was measured by tail snip using Accu-Chek blood glucose meter. 2 g/kg lean mass glucose was injected intraperitoneally, and glucose measurements were taken every 15 min for 2 hours. The area under the curve (AUC) was calculated, and plotted as bar graphs.
For histological analysis, pancreas samples were excised and fixed for 24 hours at RT in 4% neutral-buffered formalin (NBF), and stored in 30% sucrose. 5 μm cryosections were stained with either glucagon or insulin antibodies overnight, and visualized with ImmPRESS HRP IgG polymer detection kit (Vector Laboratories) with ImmPACT DAB Peroxidase Substrate (Vector Laboratories) according to standard protocols, and examined by light microscopy.

[2] = test system: primary human hepatocytes; test: Palmitate loading (lipotoxicity) of primary human hepatocytes; format: cell-based
Experimental: Palmitate:BSA conjugated solution in the ratio of 6:1 was prepared as described earlier (Alsabeeh et al., 2018). Palmitate (0.5 mM) conjugated in fatty acids free BSA was used to treated cells as described in figure legends; 0.5% BSA solution was used as control. […]
Primary human hepatocytes were seeded on 8-well chamber slides (1×10^4 cells/well). For this experiment, cells were not serum-starved prior to palmitate treatment. 24 hours following palmitate stimulation, cells were washed, incubated with 25 μM of DCFDA solution (ab113851, Abcam) for 45 minutes at 37° C. in the dark, and rinsed with dilution buffer according to the manufacturer's protocol. Live cells with positive DCF staining were imaged with filter set appropriate for fluorescein (FITC) using a fluorescence microscope (Leica). […]
Western blots were carried out on total protein extracts from hepatocytes and liver tissues. Hepatocyte and liver tissue lysates were homogenized in RIPA Lysis and Extraction Buffer (89901, Thermo Scientific) containing protease and phosphatase inhibitors (Roche). Protein lysates were separated by SDS-PAGE and transferred to PVDF membranes. Protein bands were visualized using the ECL detection system (Pierce) with the appropriate secondary antibodies: anti-rabbit HRP or anti-mouse HRP.

WDF-fed mice [3] = test: WDF NASH reversal model (Example 4); format: in vivo, mouse; conditions: WDF 16 weeks, then 10 mg/kg for 8 weeks on continued WDF
Experimental: FIGS. 21A to 21L. Inhibition of Il-11 signalling reverses NASH pathologies in preclinical models and HSC-to-myofibroblast transformation. (A) Schematic showing therapeutic dosing regime in NASH reversal experiment for data shown in (B-G). Mice were fed with WDF for 16 weeks to induce NASH and then treated with (10 mg/kg) X209 or IgG for 8 weeks while they were on continuous WDF feeding. (B) Total liver hydroxyproline content, the levels of (C) liver triglycerides, (D) serum ALT, (E), fasting blood glucose, (F) serum triglycerides, and (G) serum cholesterol in mice on NC and IgG- and X209-treated WDF (n≥5/group). (H) Schematic showing reversal experiment in which fibrosis was established by feeding mice HFMCD for 10 weeks and then replacing this with NC and initiating antibody (X203 and X209) therapy. Mice were euthanized at the indicated time points. (I) Total liver hydroxyproline content (dotted line represents the mean value of NC=0.93) and (J) relative mRNA expression of Mmp2/Timp1 at 1-, 3-, 6-weeks after concurrent metabolic intervention (diet switch) and X203, X209, or IgG treatment (n≥3/group). Quantification of ACTA2^+ve immunostaining (scale bars, 200 μm) following incubation (K) with TGFβ1 or (L) with PDGF, either prior to or after the addition of X203, X209, or IgG (n=5/group). (K-L) TGFβ1 (5 ng/ml), PDGF (20 ng/ml), IgG, X203 and, X209 (2 μg/ml). (B-G, K-L) Data are shown as box-and-whisker with median (middle line), 25th-75th percentiles (box) and min-max percentiles (whiskers); (I) data are shown as mean±s.d; (J) data are represented as line chart (mean) and transparencies indicate s.d. (B) Two-tailed Student's t-test (C-G,K-L) two-tailed, Tukey-corrected Student's t-test; (I-J) two-way ANOVA. FC: fold change; NC: normal chow; WDF: Western diet+15% (w/v) fructose; HFMCD: high fat methionine- and choline-deficient.
Ten week old male C57Bl/6J mice were fed Western diet (D12079B, Research Diets), supplemented with 15% weight/volume fructose in drinking water to mimic NAFLD/NASH like humans 17,18, whereas control mice received normal chow and tap water. Durations of diet and antibody therapies are described.
Mice were injected intraperitoneally with either antagonist anti-IL-11 antibody, antagonist anti-IL11RA antibody or an identical amount of IgG isotype control for the treatment durations outlined in the figures.
Mice were fasted for 6 h prior to blood collection (via tail snip) and Accu-Chek blood glucose meter was used to take fasting glucose measurements.

B1: X209: mouse anti-mouse IL-11Rα IgG (IgG1κ), neutralising; VH SEQ ID NO:24, VL SEQ ID NO:25 (antibody, V domains shown)
VH: QVQLQQPGAELVRPGSSVKLSCKASGYTFTNYWMHWLKQRPVQGLEWIGNIGPSDSKTHYNQKFKDKATLTVDKSSSTAYMQLNSLTSEDSAVYYCARGDYVLFTYWGQGTLVTVSA
VL: DIVLTQSPATLSLSPGERATLSCRASQSISNNLHWYQQKSHEAPRLLIKYASQSISGIPARFSGSGSGTDFTLSFSSLETEDFAVYFCQQSYSWPLTFGQGTKLEIK
modifications: Enx209 VH; Enx209 VL
- body weight (WDF-fed mice [1]; WDF-fed mice vs IgG control): significant reduction in body weight
- fasting blood glucose levels (WDF-fed mice [1]; WDF-fed mice vs IgG control): significantly lower
- fat mass (WDF-fed mice [1]; WDF-fed mice vs IgG control): significantly reduced fat mass
- glucose tolerance (ipGTT) (WDF-fed mice [1]; WDF-fed mice vs IgG control): significant improvement in glucose tolerance
- lean mass (WDF-fed mice [1]; WDF-fed mice vs IgG control): increase in lean mass
- serum cholesterol levels (WDF-fed mice [1]; WDF-fed mice vs IgG control): significantly lower
- serum triglyceride levels (WDF-fed mice [1]; WDF-fed mice vs IgG control): significantly lower
- pancreas weight (WDF-fed mice [1]; treated from 8 to 16 weeks or from 16 to 24 weeks): remarkable protection against WDF-induced loss of pancreas
- glucagon staining in pancreatic islets (WDF-fed mice [1]; treatment from 16 to 24 weeks): remarkably reduced
- insulin expression in the islets (WDF-fed mice [1]; treatment from 16 to 24 weeks): improved
- islet hyperplasia (WDF-fed mice [1]; treatment from 16 to 24 weeks): remarkably reduced
- palmitate-induced signaling events ([2]; Western blot): largely inhibited
- secretion of cytokines (IL11, IL6, CCL2, CCL5) ([2]; X209 2 μg/ml or sgp130 1 μg/ml): reduced the secretion of all cytokines
- NOX4 upregulation by palmitate ([2]; palmitate): inhibited
- caspase3 activation ([2]; palmitate): largely inhibited
- fatty acid synthase (FASN) upregulation ([2]; palmitate): largely inhibited
- triglyceride accumulation ([2]; palmitate): largely inhibited
- ROS production ([2]; sFA-loaded hepatocytes): prevent ROS production
- glutathione (GSH) levels ([2]; sFA-loaded hepatocytes): partial restoration
- hepatic Erk activation (WDF-fed mice [3]): inhibited
- liver fibrosis (WDF-fed mice [3]): reversal
- liver inflammation (WDF-fed mice [3]): reversal
- liver steatosis (WDF-fed mice [3]): reversal
- serum ALT levels (WDF-fed mice [3]): reduction
- serum cholesterol levels (WDF-fed mice [3]): reduction
- serum glucose (WDF-fed mice [3]): reduction
- serum triglycerides (WDF-fed mice [3]): reduction
